Experimental data: the RNAGym collection of RNA variant scans (doi:10.7554/elife.90254)

B1: LINE1-full (parent)
chain: UACGUAGGUGGUUUUCCCCUGAUAGUGCUAAGGGGGCCUGGAAGUUUGGACUGGGCAGAGCUCAACACAGCGUGGCAAAGUGGCUGUGGCUAGACUGCCUCUCUGGAUUCCUCGUCACUCAGCAGGGCAUCUCUGAGAGAAAUGCC

Variants of: B1
Assay: self-cleavage, relative activity (ratio to wild type); higher = more cleavage; in vitro, sequencing; the parent is a self-cleaving ribozyme

Variant | self-cleavage
C66U A141G | 0.03
A67C U73C | 0.22
A65G G89A | 0.04
A65G G89C | 0.03
A67G G74A | 0.45
A67G A78G | 0.27
A64U A79U | 0.64
A65G U119G | 0
A65G U119C | 0.04
A64U U109C | 0.25
A64U U109G | 0.23
A67U U108A | 0.16
A67G C120U | 0.45
A67U A142U | 0.14
A67U A142G | 0.15
A65G U85C | 0.13
A65G U85A | 0.07
A65G A138G | 0.06
A67G G125U | 0.39
A65G A78U | 0.03
A64U A141C | 0.46
C66U A136G | 0.04
A65G G144U | 0.06
A65U A124G | 0.09

Variant | self-cleavage
A65U A124U | 0.18
A64G U112G | 0
A64G U112C | 0.28
A67G A107U | 0.92
A67G A107G | 0.25
A64U G122A | 0.54
A64U G122C | 0.44
A64G U143A | 0.24
A65G A69U | 0.07
A65G A69C | 0
A65G A69G | 0
A64U U132A | 0.07
A67U A124G | 0.02
A67U A124C | 0.17
A64G U108A | 0.12
A67C A138U | 0.03
C66U U102A | 0.06
C66U U143C | 0.03
A65U U108C | 0.4
A67C G82A | 0.05
A67U U96A | 0.02
A64U A138C | 0.64
A64U A138G | 0.52
C66U A140G | 0.04

Variant | self-cleavage
A67U U102A | 0.11
A67U U102C | 0.1
A65G U81A | 0.06
A65C U87C | 0.04
A64U U112A | 0.47
A65U A69G | 0.09
A65U A69C | 0.02
A64G U102C | 0.34
A64U U81G | 0.4
A64G U119C | 0.32
A67G U100C | 0.4
C66U U96A | 0.02
A67G A141G | 0.38
A67U G88U | 0.02
A67G G126A | 0.58
A65U A140U | 0.1
A65U A140G | 0.26
A67G U96A | 0.06
A67G U96C | 0
A67G G114A | 0.38
A67G G114C | 0.49
A67G U130C | 0.65
A67G U130A | 0.54
A67G U87A | 0.12

Variant | self-cleavage
A67C A78U | 0.07
A64U A77C | 0.39
A64U | 0.41
A67G U115A | 0.61
A67G U115G | 1.22
A67G U115C | 0.55
A65G A136U | 0.07
A65U A142G | 0.19
A65G C95A | 0.04
A65G C111U | 0.06
A65G C76U | 0.02
A64U U85A | 0.06
A67C G135U | 0.05
A64U A94U | 0.26
A67G U134C | 0.56
A67U C103A | 0.15
A67U U109A | 0.11
A67U U109C | 0.04
C66A A136G | 0.04
A67C A136G | 0.12
A67U A141G | 0.13
A67G A92G | 0.09
A67G A92U | 0.41
A67G U109C | 0.16

Variant | self-cleavage
A64U U115A | 0.57
A64U G126A | 0.37
A67U C84U | 0.02
A67U C131A | 0.13
A65U G80A | 0.28
A65G G114A | 0.04
A64U C123U | 0.41
A64U U134A | 0.16
A64U U134C | 0.51
A67U C71U | 0.02
A65U A129U | 0.18
A65U A129G | 0.38
A64U U130A | 0.62
C66U U130C | 0.05
A67U C146A | 0.14
A67C U115A | 0.04
A67G C113A | 0.45
A67G C113U | 0.44
A65U G139A | 0.15
A64U U91C | 0.18
A65U G88U | 0.02
A67C C71A | 0.02
A64U U102C | 0.34
A67G U81C | 0.35

Variant | self-cleavage
A67U A140U | 0.08
A67U A140G | 0.09
A64U C71U | 0.37
A65G C116U | 0.05
A67C U104C | 0.04
A67U U81A | 0.07
A67U C133U | 0.1
A67G A124U | 0.49
A65U U81C | 0.19
A64U G72C | 0.25
A65C A124G | 0.1
A65G C131G | 0.06
A67U A69U | 0.04
A65G A77G | 0.04
A65G U132C | 0.07
A65U A78C | 0.27
A67G U132C | 0.62
A67U A121G | 0.15
A67U A121C | 0.2
A67G G80A | 0.79
A65G C133U | 0.04
A67G U104C | 0.96
A65C U143C | 0.06
A65U A141G | 0.18

Variant | self-cleavage
C66U G75A | 0.04
A67U A107G | 0
C66U C111U | 0.04
A67C U119C | 0.09
A65U A67G | 0.15
A67G A136G | 0.67
A67G A136C | 0.38
A67G A136U | 0.4
A64U A140G | 0.39
A64U U104C | 0.62
A65U U112A | 0.14
A65G A140U | 0.07
A65G A140G | 0.04
A65G A140C | 0.13
A65G A142C | 0.08
A65U C76U | 0.22
A67G U112A | 0.53
A67G U112C | 0.39
A67G A77U | 0.3
A67G U119A | 0.31
A67G U119C | 1.07
A64U C68A | 0.01
A65G U134A | 0.04
